{"source": "paper PMC8136874", "about": "“The entry reaction of the plant shikimate pathway is subjected to highly complex metabolite-mediated regulation” (The Plant Cell, 2021)", "key": {"[1]": {"tested_on": "O=C[C@H](O)[C@H](O)COP(=O)(O)O", "experiment": "DHS enzymatic activity assay with recombinant AthDHS3", "format": "biochemical, Arabidopsis thaliana", "conditions": "other: various concentrations of the substrate; means ± SEM, n = 3; pH 7.4", "procedure": "Unless otherwise noted, DHS enzymatic activity was monitored as previously described ([Liu et al., 2008]), with several optimizations for high-throughput assays with eight-strip PCR tubes and a thermal cycler. The enzyme solution (7.7 µL) containing 50 mM HEPES (pH 7.4) was preincubated with an effector molecule(s) at room temperature for 10 min. For assays using recombinant protein and enzyme fraction isolated from plant leaves, 0.01–0.05 µg and approximately 50 µg of proteins were used, respectively. After adding 0.5 µL of 0.1 M DTT, the samples were further incubated at room temperature for 15 min. […] The enzyme reaction was started by adding 6.8 µL of the substrate solution, then incubated at 37°C for 20 min, and terminated by adding 30 µL of 0.6 M trichloroacetic acid. After brief centrifugation, 5 µL of 200 mM NaIO4 (sodium meta-periodate) in 9 N H3PO4 was added to oxidize the enzymatic product and incubate at 25°C for 20 min. To stop the oxidation reaction, 20 µL of 0.75 M NaAsO2 (sodium arsenite), which was dissolved in 0.5 M Na2SO4 and 0.05 M H2SO4, was immediately mixed. After 5 min of incubation at room temperature, one-third of the sample solution was transferred to a new tube to be mixed with 50 µL of 40 mM thiobarbituric acid and incubated at 99°C for 15 min in a thermal cycler. Developed pink chromophore was extracted by putting the final solutions with 600 µL of cyclohexanone in eight-strip solvent-resistant plastic tubes, mixing vigorously and centrifuging them at 4,500 × g for 3 min to separate water- and cyclohexanone-based layers. The absorbance of the pink supernatant was read at 549 nm with the microplate reader (Infinite 200 PRO, TECAN, Männedorf, Switzerland) to calculate DAHP production with the molar extinction coefficient at 549 nm (ε = 549 nm) of 4.5 × 10^4/M/cm. […]\nFor determination of kinetic parameters, the data of enzymatic activities measured in the presence of various concentration of substrates were calculated with the Michaelis–Menten equation in Graphpad Prism 6 (GraphPad Software, San Diego, CA, USA)."}, "[2]": {"tested_on": "C=C(OP(=O)(O)O)C(=O)O", "experiment": "purified protein, by the assay type", "conditions": "other: various concentrations of the substrate; means ± SEM, n = 3; pH 7.4"}}, "data": [{"substance": "AthDHS3 (Arabidopsis thaliana)", "values": [{"measurement": "Km", "setting": "[1]", "result": "1550 ± 276", "unit": "µM"}, {"measurement": "kcat", "setting": "[1]", "result": "9.13 ± 0.28", "unit": "s⁻¹"}, {"measurement": "kcat/Km", "setting": "[1]", "result": "6350 ± 160", "unit": "M⁻¹ s⁻¹"}, {"measurement": "Km", "setting": "[2]", "result": "706 ± 124", "unit": "µM"}, {"measurement": "kcat", "setting": "[2]", "result": 8.42, "unit": "s⁻¹"}, {"measurement": "kcat/Km", "setting": "[2]", "result": 12400, "unit": "M⁻¹ s⁻¹"}]}]}
